# T1: human 5T4 on transfected cells (human, UniProt Q13641 32-420)
# T1 construct: whole, on cells; for B16 and A9 cells only a 5T4 construct is named; also called 5T4-transfected B16 cells; B16-5T4
# T1 sequence (looked up): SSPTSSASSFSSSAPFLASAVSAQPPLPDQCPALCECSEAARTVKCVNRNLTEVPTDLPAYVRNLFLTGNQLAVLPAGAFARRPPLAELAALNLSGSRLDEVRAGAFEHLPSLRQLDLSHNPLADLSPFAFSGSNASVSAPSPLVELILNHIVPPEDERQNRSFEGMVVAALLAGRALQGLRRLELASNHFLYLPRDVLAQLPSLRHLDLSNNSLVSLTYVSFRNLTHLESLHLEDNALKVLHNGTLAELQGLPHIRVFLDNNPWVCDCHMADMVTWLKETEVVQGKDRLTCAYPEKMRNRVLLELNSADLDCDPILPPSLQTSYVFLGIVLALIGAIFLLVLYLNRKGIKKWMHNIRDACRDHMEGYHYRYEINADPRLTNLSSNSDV
# T2: 5T4 (immobilised for SPR) (UniProt Q13641 32-355, limits assumed, biotinylated on the MASS-1 platform)
# T2 construct: also called biotinylated 5T4
# T2 sequence (looked up): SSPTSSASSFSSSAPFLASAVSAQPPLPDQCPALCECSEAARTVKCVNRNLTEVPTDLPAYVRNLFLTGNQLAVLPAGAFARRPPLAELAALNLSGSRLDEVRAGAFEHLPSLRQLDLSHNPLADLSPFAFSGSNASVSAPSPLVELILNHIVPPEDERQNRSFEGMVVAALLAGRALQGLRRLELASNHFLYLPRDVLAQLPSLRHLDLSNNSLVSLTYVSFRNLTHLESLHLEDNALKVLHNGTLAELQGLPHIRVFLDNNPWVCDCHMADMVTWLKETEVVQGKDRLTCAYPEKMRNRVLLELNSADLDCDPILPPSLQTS
# T3: mouse 5T4 (mouse, UniProt Q9Z0L0 32-426)
# T3 construct: whole, on cells; also called murine 5T4
# T3 sequence (looked up): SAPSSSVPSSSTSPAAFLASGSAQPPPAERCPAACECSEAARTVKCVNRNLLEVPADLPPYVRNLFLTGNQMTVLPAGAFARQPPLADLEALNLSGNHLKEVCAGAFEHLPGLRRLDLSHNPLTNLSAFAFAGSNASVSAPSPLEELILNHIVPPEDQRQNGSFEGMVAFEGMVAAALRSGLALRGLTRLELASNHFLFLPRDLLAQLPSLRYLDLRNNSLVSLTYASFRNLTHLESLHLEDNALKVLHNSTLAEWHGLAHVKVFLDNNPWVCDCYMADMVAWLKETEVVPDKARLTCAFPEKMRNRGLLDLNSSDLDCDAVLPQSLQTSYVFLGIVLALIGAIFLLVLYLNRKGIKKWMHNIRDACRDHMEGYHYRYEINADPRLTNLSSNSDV
# T4: 5T4-Fc (human, UniProt Q13641 32-355, limits assumed)
# T4 construct: obtained from Peter L. Stern, University of Manchester; also called h5T4-Fc; recombinant 5T4
# T4 sequence (looked up): T2 sequence (looked up)
# B1: 1212/1213 (antibody, IgG1, V domains shown)
# VH: EVQLLESGGGLVQPGGSLRLSCAASGFTFSSYAMSWVRQAPGKGLEWVSYISSYGGYTSYADSVKGRFTISRDNSKNTLYLQMNSLRAEDTAVYYCARYHSGVLDYWGQGTLVTVSS
# VL: DIQMTQSPSSLSASVGDRVTITCRASQSISSYLNWYQQKPGKAPKLLIYAASSLQSGVPSRFSGSGSGTDFTLTISSLQPEDFATYYCQQYYYHYLLTFGQGTKLEIK
# notes: 5T4 antibody
# Experiments:
# [1] = target: T1, human 5T4 on transfected cells; test: flow cytometry, 5T4-transfected B16 cells
# Description: (§1) Analysis of 5T4 mAb binding with flow cytometry was performed using 5T4-transfected cell lines and as negative control, mock transfected cells. Three different transfected cell lines used were used for this study; B16, A9 and CHO, transfected either with a 5T4 construct or with an empty vector control construct. Cells were stained with 5T4 antibodies diluted in FACS buffer (PBS, 0.5% BSA and 0.02% NaN₃). […] Samples were analysed either on a FACSCalibur or a FACSverse (BD Biosciences, Heidelberg, Germany) and mean fluorescence intensity (MFI) determined.
# [2] = target: T1, human 5T4 on transfected cells; test: flow cytometry, 5T4-transfected A9 cells
# Description: as §1
# [3] = target: T2, 5T4 (immobilised for SPR); test: SPR Biacore 3000, 5T4 amine-coupled, mAb injected, 1:1 Langmuir
# Description: Binding kinetics of the 5T4-specific mAbs have been studied using two different SPR-based platforms, the Biacore 3000 (GE Healthcare) and the MASS-1 platform (Sierra Sensors). Briefly, 5T4 was captured at the sensor chip surface either via direct amine coupling (Biacore platform) or using a streptavidin coated chip and biotinylated 5T4 (MASS-1 platform). The different 5T4-specific mAbs were then injected over the chip in increasing concentrations and the association and dissociation rates studied in real time. A 1:1 Langmuir model was used for curve fitting.
# [4] = target: T3, mouse 5T4; test: flow cytometry, mouse 5T4-transfected cells
# [5] = target: T5, cynomolgus 5T4 (Macaca mulatta (cynomolgus)); test: flow cytometry, CHO cells transfected with cynomolgus 5T4
# T5 construct: whole, on cells; stably transfected CHO cells; also called cyno5T4; cy5T4
# Description: (§2) The potency of 5T4 antibodies in binding to cynomolgus 5T4 was determined by flow cytometry. CHO cells were stably transfected with […] (cynomolgus) 5T4. […] Samples were analysed either on a FACSCalibur or a FACSverse (BD Biosciences, Heidelberg, Germany) and mean fluorescence intensity (MFI) determined. […] To compare the EC50 values between human and cynomolgus 5T4, the cy5T4/hu5T4 ratio was calculated from the experiment with the full dose-response.
# [6] = target: T6, human/mouse 5T4 chimera E3; test: flow cytometry, cells with 5T4 chimera; % positive cells over that of the best clone
# T6 construct: on stably transfected CHO cells
# Description: (§3) Epitope mapping was performed by investigation of loss of binding by the antibodies using a panel of human/mouse chimeric 5T4 constructs by flow cytometry. […] Two strategies were used for the epitope mapping as illustrated in FIG. 5. In one approach, seven human/mouse 5T4 chimeras were constructed based on dividing 5T4 into seven different domains (FIG. 5). By replacing each domain with the corresponding mouse sequence seven human/mouse 7 5T4 human/mouse chimeras were generated. The chimeras were generated using the human protein 5T4 sequence NP_006661.1 (reference mRNA sequence NM_006670.4) and the corresponding mouse sequence NP_035757.2 (reference mRNA sequence NM_011627.4). The human/mouse chimeric DNA constructs, as well as human and mouse wild-type 5T4, were cloned into pcDNA3.1 expression vectors. […] In the other approach, cells transfected with a human/mouse 5T4 chimera (Woods et al., 2002) was used, in which mouse sequence in amino acid 173-420 replaced the human sequence (FIG. 5). As controls human 5T4 and mouse 5T4-transfected cells were used.
# (§4) For flow cytometric analysis, cells were stained with different 5T4 antibodies diluted in FACS buffer (PBS, 0.5% BSA). […] Samples were analysed by FACSverse (BD Biosciences, Heidelberg, Germany) and % positive cells were determined. To compensate for variations in % 5T4 positive cells in the various transfected populations, binding levels were normalized within each chimera by dividing % positive cells for each clone with % positive cells for the clones resulting in the highest % positive cells (% pos cellsclonX/% positive cellsₘₐₓ). A normalized value≤0.75 was defined as mAb binding being dependent on the replaced region, whereas a normalized value≤0.25 was defined as complete dependence.
# [7] = target: T7, human/mouse 5T4 chimera E4; test: as above
# T7 construct: on stably transfected CHO cells
# Description: as §3, §4
# [8] = target: T8, human/mouse 5T4 chimera E6; test: as above
# T8 construct: on stably transfected CHO cells
# Description: as §3, §4
# [9] = target: T9, human/mouse 5T4 chimera E1; test: as above
# T9 construct: on stably transfected CHO cells
# Description: as §3, §4
# [10] = target: T10, human/mouse 5T4 chimera E2; test: as above
# T10 construct: on stably transfected CHO cells
# Description: as §3, §4
# [11] = target: T11, human/mouse 5T4 chimera E7; test: as above
# T11 construct: on stably transfected CHO cells
# Description: as §3, §4
# [12] = target: T12, human/mouse 5T4 chimera E5; test: as above
# T12 construct: on stably transfected CHO cells
# Description: as §3, §4
# [13] = target: T4, 5T4-Fc; test: ELISA, plates coated with 5T4-Fc
# Description: ELISA was performed using a standard protocol. Plates (#655074, Greiner Bio-One GmbH, Germany) were pre-coated with 0.5 μg/ml 5T4-Fc (obtained from Peter L. Stern, University of Manchester) overnight. 5T4 antibodies were diluted from 6 to 1.5×10⁻³ μg/ml in 1:4 dilutions and added in duplicates of 50 μl to each well. Binding was detected with rabbit anti-h kappa L-chain-HRP (P0129, Dako Denmark) and the ELISA was developed with SuperSignal ELISA PICO Chemiluminescent substrate (Thermo Scientific Pierce, Rockford, Ill. USA) for 2-10 minutes and read in an automated microplate based multi-detection reader (FLUOstar OPTIMA, Netherlands).
# [14] = target: T5, cynomolgus 5T4; test: flow cytometry, CHO cells with cynomolgus 5T4 against CHO cells with human 5T4
# Description: as §2
binder,measurement,setting,value
B1,EC50,[1],1.4 nM
same,Normalized EC50 (to 1628),[1],1.1 ratio to 1628
same,Normalized EC50 (to 1628),[2],0.4 ratio to 1628
same,kon,[3],450000 M⁻¹ s⁻¹
same,binding result,[4],no binding
same,EC50,[5],30.7 nM
same,normalized % positive cells,[6],0.93
same,normalized % positive cells,[7],1
same,normalized % positive cells,[8],0.03
same,normalized % positive cells,[9],0.89
same,normalized % positive cells,[10],0.9
same,normalized % positive cells,[11],0.88
same,normalized % positive cells,[12],0.84
same,EC50,[13],0.56 nM
same,Ratio EC50cyno-5T4/h5T4,[14],140 ratio
